Data reported in the RNAGym collection of RNA variant scans (doi:10.1073/pnas.2313332121).

B1: TPR t1 (parent)
chain: GACCAAUCUGCCCUCAGAGCUCGAGAACAUCUUCGGAUGCAGAGGAGGCAGGCUUCGGUGGCGCGAUAGCGCCAACGUCCUCAACCUCCAAUGCAUCCCACCACAUGAUGAUGCCUGAAGAGCCUUGGUUUUUUG

Variants of: B1
Experiment: polymerase ribozyme fitness, log enrichment relative to wild type (log ratio); higher = more active; in vitro selection for triplet polymerase activity
Outline: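 Fitness is a logarithmic measure of how a genotype enriched relative to the wild type, with replicate averages weighted by inverse variance. The logarithm uses base 2, and enrichment came from Illumina sequencing of input and output libraries. Those libraries were PCR-built, transcribed mutants of each subunit of a heterodimeric triplet polymerase ribozyme, passed through one triplicate in vitro selection round that included frozen incubation at −7 °C, gel excision of extended constructs and streptavidin-bead capture. Genotypes were kept only if they had ≥10 input reads and ≥1 read per output.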

Variant | polymerase ribozyme fitness (log ratio)
A68G C102A | -6.51
G69U A84U | 0.757
G69U A84C | 0.129
G69U U78G U112A | 2.31
G69C A84C U125A | -2.42
G69C C99U | -3.79
A68U C123U | -5.66
G69A C88U | -2.7
G69A C88A | -1.98
A66G C72G A95U G117U U132C | -6.16
G65C C85U A108U C123G | -7.43
G69C C82U U126G | -3.1
C64U U96A | -1.23
G69U C114U | -0.582
U67C C114U | -6.64
A66G C79G U130C | -3.06
A66U U130A | -1.42
A66C C94A C114G G120C | -5.33
G65U C72A | -5.48
G69C U92A U133G | -4.36
G65A A68G A121U C123G | -5.3
G69U C98G | -2.4
G69U G135C | 1.06
A66U C76G U78A U106A | -0.894

Variant | polymerase ribozyme fitness (log ratio)
G69A U106A | -2.76
G69A U106C | -3.42
G69U G110C U125C | -1.52
C64U U129C | -0.708
C64U U129A | -0.991
C64U U129G | -1.46
G69A G113A A121U | -1.68
G69A C79U C80U | -6.55
G69C G71U | -4.82
G69U A74C C104U | 0.0316
A66U G77A A95C | -2.7
G69C C89G | -3.31
G69U C115U | -0.095
G69C G77A C98U U126C U130C | -3.72
G65U G69U G113A U130G | -4.13
G69U U106C A121U | 2.34
A66G C124G G128A | -1.05
A68G U87G A118U U132A | -2
A68G U81A | -4.45
A68G G71A | -4.15
A66C G93A A121G | -0.199
G69A C72U A111C U131A | -3.01
G69U C99A U130G | -3.92
G69C U131A | -2.41

Variant | polymerase ribozyme fitness (log ratio)
G69A C86U A111C | -3.32
A68G C124U | -1.26
G69C C79G U109G | -6.78
G69A C79A A111G | -5.28
G69C G110A | -2.04
A66G G71U C94A A111C | -4.73
G69U C86A C104U | 0.251
A66C C70U G113A | -2.81
G69A G77C | -4.57
G69A G77A | -2.61
G65A U112A | -2.74
A66C A111G G117U | -7.39
G69U C86U C101U C102U G120C | 0.552
G69U C72U U87A G113A | -1.35
A68G C72G A83U C86A C104U U112G U116C A119C | -6.61
A66G G71A A83C C88U U106A U130G | -3.75
G69U C89A | -0.471
G69C U112A | -0.545
G69U A95G G135U | -0.343
A66U C79G | -4.01
G69C G77A C88A G127A U129A | -5.53
A66C U78C C101G C123A U132A | -3.72
A66U C85U | -2.22
A66U C85G | -1.65

Variant | polymerase ribozyme fitness (log ratio)
A68G C94G G122A | -5.12
G69C A90U | -2.68
G69U A74U G135C | -0.511
G69C C114A | -2.28
G69A U112C | -0.685
G69A U112A | -2.26
G69U C101U U126C | -0.166
G69C A83G G120C | -1.54
C64U U131A | 0.0289
G69U G71C | -2.52
G69A A111U U130A | -6.09
A68U G69C A121C | -3.61
A66C C85U C86U C97U | -3.15
U67A C73U C94A C104U G117U | -6.08
U67G G69U G113U | -7.04
G69U U78G U112A U133C | 3.16
A66G G77A | -1.13
A66U C124U | 0.294
A66U C124G | 0.671
G69C A121G | 0.734
A68U G93U C101A G113U G117A | -6.33
G65A G117U | -6.21
G69C C99U G120U | -5.41
C64U U112A | 0.346

Variant | polymerase ribozyme fitness (log ratio)
C64U U112C | 0.999
C64U U112G | -0.0625
G69C U87A | -1.98
G69C C73A G122A C124G | -0.387
G69A A111G | -2.61
G69A U81C | -2.71
G69A U81G | -6.79
G69C C102U A108C A111G C115U U130A | -6.19
G69U A84C C124A | 1.33
G69U C79U A111G U129C U133A | -0.673
G69C C124G | 0.351
A66G C79G U81C C99G G113U G120C | -7.68
C64U U81G | -4.28
A66C U112A G128C | -4.27
A68G U87G | -3.29
A66U C73A C85G | -2.04
G69U G113A | -0.285
G69U G113C | -0.897
A66C C89A G117U | -6.24
G69U G71U G120U U126A | -0.887
G69A C115A | -1.77
G69A C115U | -2.83
G65A C88G | -5.43
G69U A75U C101U G113C U129A | -2.36

Variant | polymerase ribozyme fitness (log ratio)
G69U C72G | -1.29
G69C C86U | -1.37
G69C C101G G122A U125A | -3.83
G69U C80U C102U C104U G120C | 1.02
A68G A83C U96G U106A A121C | -1.7
G69U G71U G117A | -2.19
A66U C115U | -3.52
G69C U92G | -4.02
G69C U92C | -2.26
G69C C70A G117A A121G | -6.08
G69C A119U | -1.32
G69C A119G | -0.227
A68G U96G | -3.68
A66C U78C | -1.36
A66C C88U G113U | -5.8
G69C A111C | -0.894
G69U C98U U129C | -1.15
A66U C72G A95C G110U | -6.57
G69A A83U | -3.05
A68G U87C A111C G135U | -6.03
G69C C70U | -3.87
G65A U106G | -6.66
A68U C102A | -6.73
A66C A95G | -1.6

Variant | polymerase ribozyme fitness (log ratio)
G69C C85A G117C A121C | -5.54
G65U C73U | -5.34
G69C C70U C80U U112G G117U A118U | -7.19
G69C A105U U112G | -3.4
A68G C94A | -5.05
G69U C123G | 2.28
A66C C85G U106A | -2.61
C64U U130G | -0.668
A66C C124U | 0.285
G69A U129A | -3.9
A68U C79A C104A A111U | -8.01
G69U C88A | 0.231
G69A G117U | -5.17
G69A G93U | -4.03
G69A G93A | -3.19
A66C C86U C114G U129G | -4.68
G69U C99A G127C | -3.98
U67G C88U A111G U116A | -7.24
G69U C80G C98A U130G | -7.2
G69C U132A | -2.03
G69C A91C G113U | -4.43
G69C G135C | -1.59
A68G G113C | -4.28
